Patent publication US6440461B1, “Poly(methylidene malonate) microspheres, preparation method and pharmaceutical compositions containing them” (Virsol, priority 1998, dated 2002)

System: C3H mice
Assay: Oral tolerance induction: survival of mice after sensitisation to ovalbumin by subcutaneous injection
Type: in vivo
Details: 100 micrograms ovalbumin per mouse per day over 5 consecutive days, last dose 7 days before s.c. sensitisation with free ovalbumin (100 micrograms per mouse) on D0 and D14
Procedure: This preparation is administered via the oral route to C3H mice at the dose of 100 micrograms of encapsulated ovalbumin (per mouse per day) over 5 consecutive days. The last oral administration took place 7 days before the sensitisation of the animals to ovalbumin which is carried out by subcutaneous injection of free ovalbumin (100 micrograms per mouse) on days DO and D14. 90% of the mice survive the second injection while less than 30% of the mice administered with the microspheres without ovalbumin or with the same dose of non-encapsulated ovalbumin survive.

B1: ovalbumin (protein, UniProt P01012 2-386, looked up)
Ovalbumin: GSIGAASMEFCFDVFKELKVHHANENIFYCPIAIMSALAMVYLGAKDSTRTQINKVVRFDKLPGFGDSIEAQCGTSVNVHSSLRDILNQITKPNDVYSFSLASRLYAEERYPILPEYLQCVKELYRGGLEPINFQTAADQARELINSWVESQTNGIIRNVLQPSSVDSQTAMVLVNAIVFKGLWEKAFKDEDTQAMPFRVTEQESKPVQMMYQIGLFRVASMASEKMKILELPFASGTMSMLVLLPDEVSGLEQLESIINFEKLTEWTSSNVMEERKIKVYLPRMKMEEKYNLTSVLMAMGITDVFSSSANLSGISSAESLKISQAVHAAHAEINEAGREVVGSAEAGVDAASVSEEFRADHPFLFCIKHIATNAVLFFGRCVSP
For B1, the “mice surviving the second injection of free ovalbumin” value was “less than 30%”.
